This test concerns the target human Type 1 IGF receptor (human) (UniProt P08069). As to the kind of experiment: competitive displacement of 125I-Tyr31-IGF-I; FLAG-tagged IGF-1R captured on anti-FLAG plate. On the technique in general: Displacement assays read how much labelled ligand stays bound in the presence of the test substance.

human Type 1 IGF receptor (human), sequence (P08069 31-1367 limits assumed): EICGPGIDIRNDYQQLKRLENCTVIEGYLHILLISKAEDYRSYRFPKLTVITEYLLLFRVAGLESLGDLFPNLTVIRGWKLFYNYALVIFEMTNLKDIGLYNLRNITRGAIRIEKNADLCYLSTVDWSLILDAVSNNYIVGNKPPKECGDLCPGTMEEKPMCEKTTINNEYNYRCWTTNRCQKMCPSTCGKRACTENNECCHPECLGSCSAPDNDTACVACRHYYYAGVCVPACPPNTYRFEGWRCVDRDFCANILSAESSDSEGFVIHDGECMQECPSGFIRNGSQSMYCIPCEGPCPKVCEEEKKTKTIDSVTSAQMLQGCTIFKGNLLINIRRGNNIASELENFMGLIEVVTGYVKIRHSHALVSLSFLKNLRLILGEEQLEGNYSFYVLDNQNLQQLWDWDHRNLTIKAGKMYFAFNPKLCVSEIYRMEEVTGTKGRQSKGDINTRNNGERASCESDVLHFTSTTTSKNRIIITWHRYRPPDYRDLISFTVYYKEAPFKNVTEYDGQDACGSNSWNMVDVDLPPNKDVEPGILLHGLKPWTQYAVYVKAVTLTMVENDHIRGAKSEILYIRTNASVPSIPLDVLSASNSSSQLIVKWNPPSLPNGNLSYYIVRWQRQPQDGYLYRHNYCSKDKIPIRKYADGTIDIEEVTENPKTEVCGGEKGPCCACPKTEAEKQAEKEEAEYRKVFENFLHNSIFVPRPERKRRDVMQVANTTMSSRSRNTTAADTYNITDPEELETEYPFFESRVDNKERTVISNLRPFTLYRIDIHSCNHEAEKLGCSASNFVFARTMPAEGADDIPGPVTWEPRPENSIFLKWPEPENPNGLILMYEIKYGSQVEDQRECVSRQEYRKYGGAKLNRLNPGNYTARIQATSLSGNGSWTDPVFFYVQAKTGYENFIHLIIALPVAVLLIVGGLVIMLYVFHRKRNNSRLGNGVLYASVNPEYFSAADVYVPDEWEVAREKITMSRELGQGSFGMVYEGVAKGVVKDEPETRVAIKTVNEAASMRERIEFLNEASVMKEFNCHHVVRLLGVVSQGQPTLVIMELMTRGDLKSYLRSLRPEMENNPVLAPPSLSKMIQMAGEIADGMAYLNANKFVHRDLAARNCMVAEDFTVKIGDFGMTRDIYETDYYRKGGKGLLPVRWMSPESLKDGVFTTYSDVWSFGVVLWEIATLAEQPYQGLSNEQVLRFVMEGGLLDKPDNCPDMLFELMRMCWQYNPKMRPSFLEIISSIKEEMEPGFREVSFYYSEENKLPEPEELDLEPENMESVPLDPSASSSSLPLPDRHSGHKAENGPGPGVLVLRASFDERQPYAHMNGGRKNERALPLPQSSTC

Consider “lispro-insulin (ligand; other documents disagree on this pair)”, for which the relative affinity (percent (of IGF-I for IGF-1R)) came to 0.27.

Source of the values: patent publication US20130085101A1.
